Data: US11571485B2, “Peptides and antibodies for detecting changes in alzheimer's disease brain and methods of use thereof” (Sanford Burnham Prebys Medical Discovery Institute, priority 2016, dated 2023)

Tests used:
albumin (BSA) = albumin (BSA) (Bos taurus, UniProt P02769); experiment: ELISA binding to control protein
[1] = test system: human iPS cell-derived endothelial cells (ECs) from an AD patient; experiment: AgNP binding to hiPSC-derived brain endothelial cells; assay type: cell-based
From the text: Human iPS cell-derived from an AD patient and from a normal individual were differentiated into endothelial cells and the cultured cells were used in an overlay assay with DAG-coated and control AgNP.
The details of human induced pluripotent stem cells (hiPSCs) derived from Alzheimer disease patients with APP duplication, and non-demented control individuals, are described previously (Israel et al., Nature 482, 216-220 (2012)). These hiPSCs were extensively characterized and have been established as an excellent human model for AD. An additional AD hiPSC line generated from dermal fibroblasts from an individual harboring a Presenilinl (PSEN1) mutation (Coriell Institute, Cat #AG06840) was used to further validate the results from the APP lines. hiPSCs were routinely maintained on mouse embryonic fibroblast as described before (Lin et al., Nat Methods 6, 805-808 (2009); Talantova et al., Proc Natl Acad Sci USA 110, E2518-2527 (2013)). Brain microvascular endothelial cells differentiation of hiPSCs was performed using a previously described protocol (Lippmann et al., Nature biotechnology 30, 783-791 (2012), with minor modifications. Briefly, feeder-free cultures of hiPSCs were allowed to spontaneously differentiate in the absence of bFGF for 5-7 days, and then transferred to Endothelial cell (EC) medium composed of human Endothelial Serum-Free Medium™ (Invitrogen) supplemented with 20 ng/ml bFGF and 1% platelet-poor plasma-derived bovine serum (PDS; Biomedical Technologies). After 1-2 days the cells were dissociated with dispase (2 mg/ml) and were plated on 12 well plates coated with a mixture of collagen IV (400 μg/ml) and fibronectin (100 μg/ml). Cells were then cultured in EC medium until they reached confluence, after which they were split and expanded to near 100% purity. BBB-type EC identity was confirmed by flow cytometry or double immunoreactivity to the hallmark efflux transporter p-glycoprotein and other EC markers (CD31, GLUT-1, PECAM, Occludin, and Claudin-5). Furthermore, the capability of these cells to make functional tight junctions and polarized efflux activity was validated using a dual chamber efflux transport assay as described before.
Cell binding experiments on U251 cells and hiPSCs were with done using peptide conjugated AgNP. U251 cells were cultured in a 96-well plate. The cells were blocked with 200 μl of 10% FCS in HBSS (Hanks' Balanced Salt Solution from Gibco) for 30 min at 37° C. Following that, DAG-AgNPs (0.5 nM concentration diluted in HBSS) alone or in the presence of free non-labeled peptide (200 μM) were incubated on the cells for 1 hour at 37° C. After washing the unbound AgNP with HBSS three times, the plates were imaged with fluorescent microscopy by looking at intrinsic emission from the FAM tag on the peptide. hiPSCs were cultured in 48 well plate and similar protocol as described above was followed, with the exception that AgNP concentration for incubation was kept at 0.15 nM. Nanoparticle binding was quantified from fluorescence micrographs using ImageJ™ software.

[2] = test system: P13 model of angiogenic glioblastoma; experiment: In vivo homing in P13 glioblastoma model; design: species or system mouse; settings: systemically injected
Experimental: All animal experiments were conducted under an approved protocol of the Institutional Animal Care and Use Committee of Sanford Burnham Prebys Medical Discovery Institute. The following transgenic mouse models were used for peptide homing studies—hAPP-J20 ([…], Nature genetics 1, 345-347 (1992)), Tg2576 (Jacobsen et al., Proc Natl Acad Sci USA 103, 5161-5166 (2006)), and mTHY-1-α-synuclein model (Chesselet et al., Neurotherapeutics 9, 297-314 (2012)). The P13 glioblastoma model is a patient-derived orthotopic xenograft model (Bougnaud et al., Oncotarget, (2016)). Spheroids were cultured as described previously (Bjerkvig et al., J Neurosurg 72, 463-475 (1990)). After two weeks in culture, spheroids (volume 2.5 μl) were stereotactically implanted into the brains of nude mice. Mice were used approximately 6 weeks after tumors were induced, when mice started presenting neurological symptoms. The acute brain injury model was setup as previously described (Mann et al., Nature communications 7, 11980 (2016)). Briefly, 8 to 10 week-old male BL6 mice were anaesthetized with 4% isoflurane in 70% N2O and 30% O2, and a 5-mm craniotomy was performed using a portable drill and a trephine over the right parietotemporal cortex using a stereotactic frame. […]

recombinant human CTGF = target: T1, recombinant human CTGF (Homo sapiens, UniProt P29279); experiment: ELISA binding to recombinant CTGF
T1 construct: purchased Affymetrix 14-8503-80
T1 sequence (P29279 253-349 limits assumed): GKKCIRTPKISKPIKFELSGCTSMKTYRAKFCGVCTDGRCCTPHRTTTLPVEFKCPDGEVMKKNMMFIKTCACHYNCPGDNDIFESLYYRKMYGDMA
Experimental: FIG. 10 is a graphical representation relating to identification of a receptor for DAG. DAG binds to recombinant CTGF. FAM-DAG was incubated on ELISA plate coated with recombinant human CTGF at two different peptide concentrations of the FAM peptide alone (light gray bars), or in the presence of non-labeled DAG (0.5 mM) (dark gray bars). […] DAG was also shown to colocalize with CTGF. FAM-DAG was intravenously injected in 9-month-old hAPP-J20 and WT mice, allowed to circulate for 30 minutes, after which mice were perfused, and the brains were fixed, sectioned and stained for FAM (green) and CTGF (red).
Human CTGF recombinant protein (Affymetrix Cat #14-8503-80) was incubated on Nunc low-binding plates at concentration of 10 μg/ml for overnight at 4° C. Excess protein in the plates was removed by washing with PBS-T (PBS with 0.005% Tween 20). Plates were blocked with 200 μl of 3% non-fat milk in PBS for 1 hour at room temperature and washed with PBS-T once. Biotin-labeled peptide (at different concentrations) in PBS was added to the plate for 2 hours at 37° C. For peptide inhibition, non-labeled DAG peptide (0.5 mM) was added 30 minutes prior to addition of labeled peptide. The plates were washed with 100 μl PBS-T for three times to remove excess peptide. The bound peptide was detected by incubating with 100 μl of Vectastain ABC™ reagent (Vector labs, Burlingame, Calif.) for 30 minutes. The plate was washed with 100 μl PBS-T three times. Next, 100 μl of o-phenylenediamine dihydrochloride (OPD) silver and gold substrate (Sigma-Aldrich) was added to the wells and incubated at room temperature until visible color was observed (˜30 min). Adding 50 μl of 1 M H2SO4 stopped the reaction and the plate was read at 495 nm (FlexStation™ 3 Reader, Molecular Devices, Sunnyvale, Calif., USA).

Chain of albumin (BSA) (P02769 25-607): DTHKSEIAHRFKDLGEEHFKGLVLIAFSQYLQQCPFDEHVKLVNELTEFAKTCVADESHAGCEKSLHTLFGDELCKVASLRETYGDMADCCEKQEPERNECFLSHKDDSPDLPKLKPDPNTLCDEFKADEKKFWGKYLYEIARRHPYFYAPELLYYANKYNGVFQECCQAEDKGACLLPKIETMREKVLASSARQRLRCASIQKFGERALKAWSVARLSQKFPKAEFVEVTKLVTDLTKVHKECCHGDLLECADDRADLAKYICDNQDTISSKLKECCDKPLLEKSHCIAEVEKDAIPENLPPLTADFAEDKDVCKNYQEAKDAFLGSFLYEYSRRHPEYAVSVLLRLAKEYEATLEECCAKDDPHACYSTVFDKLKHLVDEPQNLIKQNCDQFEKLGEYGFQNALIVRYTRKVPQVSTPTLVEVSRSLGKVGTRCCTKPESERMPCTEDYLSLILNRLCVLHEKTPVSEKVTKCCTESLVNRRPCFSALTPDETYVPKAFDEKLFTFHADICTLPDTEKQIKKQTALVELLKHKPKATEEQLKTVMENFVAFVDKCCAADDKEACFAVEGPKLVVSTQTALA

Sequence: CDAGRKQKC
- Binding to control protein (BSA) (albumin (BSA)): only minimal binding to a control protein (BSA)
- Binding to AD patient iPS cell-derived endothelial cells ([1]; AD patient vs normal donor cells): recognizes endothelial cells differentiated from AD iPS cells and not cells prepared similarly from a control individual
- Binding to hiPSC-derived BMECs from non-demented individual ([1]; control cells): did not bind to hiPSC-derived BMECs from a non-demented individual
- Tumor homing [2]: Strong tumor homing
- Binding to CTGF-coated plates (recombinant human CTGF; ELISA): bound to CTGF-coated plates in a dose-dependent manner
- Inhibition of CTGF binding by unlabeled DAG (recombinant human CTGF; non-labeled DAG 0.5 mM): inhibited in the presence of an excess of unlabeled DAG
